B1: RBBP5 (parent)
chain: TGTSNTTAIKSIEFARKGSCFLIN

Variants of: B1
Experiment: protein stability index of a GFP-peptide fusion (GPS, HEK-293T) (PSI 1-6); higher = more stable
Conditions: c terminus: a fixed tail appended
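Also: lentivirally expressed fusions sorted by FACS into six bins by GFP to DsRed ratio, PSI derived from sequencing read proportions per bin multiplied by bin number.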

| Variant | protein stability index |
| --- | --- |
| N5V | 2.38 |
| N5R | 2.36 |
| N5K | 2.15 |
| N5W | 1.64 |
| N5G | 2.12 |
| N5F | 2.2 |
| N5I | 1.95 |
| N5P | 2.08 |
| N5Q | 2.58 |
| N5S | 2.02 |
| N5H | 2.12 |
| N5L | 1.9 |
| N5E | 2.57 |
| N5A | 2.1 |
| F21G | 3.35 |
| F21K | 3.48 |
| F21Y | 2.56 |
| F21N | 3.53 |
| F21T | 3.5 |
| F21E | 3.73 |
| F21D | 3.83 |
| F21I | 2.37 |
| F21S | 3.09 |
| F21H | 2.86 |

| Variant | protein stability index |
| --- | --- |
| F21Q | 3.17 |
| F21L | 2.07 |
| F21P | 3.13 |
| A8S | 2.01 |
| A8V | 1.58 |
| A8N | 2.56 |
| A8C | 2.71 |
| A8F | 1.81 |
| A8P | 2.69 |
| A8W | 2.62 |
| A8T | 2.68 |
| A8R | 1.62 |
| A8L | 2.17 |
| A8E | 2.71 |
| S4K | 2.67 |
| S4E | 2.35 |
| S4R | 1.91 |
| S4D | 2.35 |
| S4F | 1.97 |
| S4L | 2.17 |
| S4N | 2.36 |
| S4W | 1.83 |
| S4V | 2.09 |
| S4P | 2.01 |

| Variant | protein stability index |
| --- | --- |
| S4A | 2.29 |
| S4G | 2.17 |
| S4C | 2.2 |
| S4T | 1.95 |
| S4Q | 2.54 |
| S4I | 2.52 |
| G2N | 2.29 |
| G2V | 2.44 |
| G2W | 2.51 |
| G2R | 2.07 |
| G2M | 2.48 |
| G2S | 2.11 |
| G2E | 2.75 |
| G2Q | 2.47 |
| G2F | 1.76 |
| G2L | 2.18 |
| G2T | 2.14 |
| G2K | 2.31 |
| G2H | 2.03 |
| G2P | 2.63 |
| G2I | 1.89 |
| F14W | 2.07 |
| F14K | 3.17 |
| F14G | 2.76 |

| Variant | protein stability index |
| --- | --- |
| F14N | 3.17 |
| F14S | 3.42 |
| F14C | 2.53 |
| F14Y | 2.38 |
| F14L | 2.51 |
| F14Q | 3.12 |
| F14I | 2.64 |
| F14T | 2.97 |
| F14R | 3.05 |
| F14E | 3.84 |
| F14V | 2.86 |
| F14P | 3.05 |
| F14A | 3.06 |
| S11D | 2.6 |
| S11R | 2.12 |
| S11N | 2.92 |
| S11A | 2.18 |
| S11H | 3.02 |
| S11P | 2.61 |
| S11K | 2.13 |
| S11M | 2.09 |
| S11L | 2.5 |
| S11G | 2.12 |
| S11W | 2.77 |

| Variant | protein stability index |
| --- | --- |
| S11T | 2.1 |
| S11F | 2.45 |
| T1W | 1.69 |
| T1I | 1.79 |
| T1G | 2.19 |
| T1Q | 2.79 |
| T1A | 2.15 |
| T1P | 2.47 |
| T1L | 2.11 |
| T1V | 1.87 |
| T1C | 1.53 |
| T1N | 2.3 |
| T1F | 1.88 |
| T1K | 2.45 |
| T1M | 2.43 |
| T7L | 1.77 |
| T7G | 2.56 |
| T7K | 2.04 |
| T7W | 1.95 |
| T7M | 1.95 |
| T7V | 1.96 |
| T7E | 2.51 |
| T7C | 1.26 |
| T7P | 2.74 |

| Variant | protein stability index |
| --- | --- |
| T7D | 2.3 |
| T7R | 2.15 |
| T7S | 2.4 |
| T7Q | 2.66 |
| T7I | 2.23 |
| T7A | 2.85 |
| S19R | 2.24 |
| S19Q | 2.24 |
| S19A | 1.62 |
| S19Y | 1.26 |
| S19W | 1.94 |
| S19K | 2.92 |
| S19H | 2.04 |
| S19M | 1.59 |
| S19T | 1.79 |
| S19V | 2.25 |
| S19I | 2.75 |
| S19N | 2.17 |
| S19E | 2.33 |
| T3G | 2.24 |
| T3M | 2.2 |
| T3A | 2.15 |
| T3H | 2.52 |
| T3V | 1.87 |

| Variant | protein stability index |
| --- | --- |
| T3W | 2.02 |
| T3F | 1.61 |
| T3I | 1.83 |
| T3K | 2.9 |
| T3E | 2.55 |
| T3D | 2.46 |
| T3P | 2.46 |
| T3C | 1.98 |
| T3R | 1.88 |
| T3L | 2.17 |
| I9Q | 2.62 |
| I9C | 2.28 |
| I9E | 2.91 |
| I9L | 2.03 |
| I9A | 2.48 |
| I9N | 2.44 |
| I9M | 2.67 |
| I9D | 2.86 |
| I9V | 2.76 |
| I9Y | 1.88 |
| I9H | 2.35 |
| I9W | 1.5 |
| N24K | 2.02 |
| N24P | 3.12 |

| Variant | protein stability index |
| --- | --- |
| N24F | 2.74 |
| N24D | 2.85 |
| N24H | 2.35 |
| N24Q | 1.79 |
| N24G | 2.27 |
| N24E | 3.01 |
| N24L | 2.22 |
| N24R | 2.09 |
| N24T | 1.76 |
| N24S | 2.04 |
| N24A | 1.89 |
| K17D | 2.7 |
| K17A | 2.24 |
| K17V | 1.7 |
| K17Y | 2.22 |
| K17Q | 2.5 |
| K17C | 1.8 |
| K17M | 1.73 |
| K17F | 2.17 |
| K17N | 2.63 |
| K17H | 2.33 |
| K17T | 2.46 |
| K17G | 2.24 |
| K17L | 1.75 |

| Variant | protein stability index |
| --- | --- |
| K17P | 2.3 |
| R16Q | 2.73 |
| R16I | 3.29 |
| R16H | 2.15 |
| R16P | 2.34 |
| R16A | 1.89 |
| R16W | 1.74 |
| R16E | 3 |
| R16Y | 2.49 |
| R16V | 1.99 |
| R16L | 3.26 |
| R16D | 2.7 |
| C20Y | 2.12 |
| C20E | 2.98 |
| C20S | 2.59 |
| C20K | 2.58 |
| C20F | 1.9 |
| C20Q | 2.51 |
| C20M | 2.01 |
| C20V | 2.09 |
| C20D | 2.6 |
| C20I | 2.23 |
| C20H | 2.16 |
| C20A | 2.6 |

| Variant | protein stability index |
| --- | --- |
| C20P | 2.74 |
| C20G | 2.49 |
| C20R | 2.55 |
| A15Y | 1.74 |
| A15F | 2.52 |
| A15V | 1.66 |
| A15D | 2.9 |
| A15Q | 2.51 |
| A15H | 2.39 |
| A15N | 2.67 |
| A15L | 2.58 |
| A15R | 2.22 |
| A15K | 2.42 |
| A15E | 2.44 |
| T6M | 2.04 |
| T6N | 3.06 |
| T6L | 2.16 |
| T6V | 1.87 |
| T6E | 2.82 |
| T6D | 2.55 |
| T6R | 1.55 |
| T6I | 1.63 |
| T6P | 2.29 |
| T6Y | 1.87 |

| Variant | protein stability index |
| --- | --- |
| T6K | 2.15 |
| T6G | 1.98 |
| T6H | 2.67 |
| T6F | 2.09 |
| I23A | 2.67 |
| I23W | 2.36 |
| I23S | 3.1 |
| I23D | 3.02 |
| I23F | 1.98 |
| I23M | 2.49 |
| I23V | 2.62 |
| I23Y | 2.58 |
| I23Q | 3.31 |
| I23P | 2.82 |
| I23R | 3.03 |
| I23L | 2.05 |
| I23T | 3.5 |
| I23K | 3.62 |
| I23N | 2.99 |
| L22W | 1.71 |
| L22I | 2.55 |
| L22N | 3.09 |
| L22T | 3.09 |
| L22A | 2.33 |

| Variant | protein stability index |
| --- | --- |
| L22C | 2.79 |
| L22M | 2.64 |
| L22R | 2.81 |
| L22D | 3.15 |
| L22V | 2.28 |
| L22P | 3.53 |
| L22K | 3.21 |
| L22S | 3.05 |
| L22E | 3.31 |
| L22G | 3.03 |
| I12T | 2.61 |
| I12K | 2.23 |
| I12D | 2.79 |
| I12N | 2.67 |
| I12F | 2 |
| I12V | 2.6 |
| I12Y | 2.12 |
| I12M | 2.61 |
| I12P | 3 |
| I12H | 2.94 |
| I12W | 2.4 |
| I12C | 2.67 |
| I12R | 2.57 |
| I12Q | 3.29 |

| Variant | protein stability index |
| --- | --- |
| I12S | 2.67 |
| I12L | 1.78 |
| I12G | 2.4 |
| E13W | 2.23 |
| E13A | 1.92 |
| E13Y | 2.6 |
| E13Q | 1.67 |
| E13M | 2.15 |
| E13T | 2.31 |
| E13S | 2.38 |
| E13C | 1.97 |
| E13H | 2.4 |
| E13G | 2.11 |
| E13N | 1.75 |
| E13I | 2.89 |
| E13P | 1.75 |
| G18Y | 2.07 |
| G18K | 2.3 |
| G18L | 2.35 |
| G18C | 1.63 |
| G18W | 1.62 |
| G18P | 2.35 |
| G18T | 1.71 |
| G18N | 2.18 |

| Variant | protein stability index |
| --- | --- |
| G18A | 1.9 |
| G18H | 1.74 |
| G18F | 1.99 |
| G18D | 2.89 |
| G18R | 2.15 |
| G18Q | 2.28 |
| G18V | 3.95 |
| K10V | 1.93 |
| K10Y | 3.11 |
| K10T | 1.77 |
| K10C | 2.38 |
| K10L | 2.74 |
| K10R | 2.29 |
| K10Q | 2.82 |
| K10S | 2.93 |
| K10M | 1.94 |
| K10I | 2.15 |
| K10H | 2.77 |
| K10E | 2.62 |
| K10D | 2.08 |
| K10A | 1.64 |
| K10F | 2.9 |
